From US20230272055A1 (Incyte, published 2023)

T1: human mutCALR on BaF3 cells stably expressing human MPL and human mutCALR (MPL-mutCALR cells) (human)
T1 construct: also called mutant calreticulin
T1 chain: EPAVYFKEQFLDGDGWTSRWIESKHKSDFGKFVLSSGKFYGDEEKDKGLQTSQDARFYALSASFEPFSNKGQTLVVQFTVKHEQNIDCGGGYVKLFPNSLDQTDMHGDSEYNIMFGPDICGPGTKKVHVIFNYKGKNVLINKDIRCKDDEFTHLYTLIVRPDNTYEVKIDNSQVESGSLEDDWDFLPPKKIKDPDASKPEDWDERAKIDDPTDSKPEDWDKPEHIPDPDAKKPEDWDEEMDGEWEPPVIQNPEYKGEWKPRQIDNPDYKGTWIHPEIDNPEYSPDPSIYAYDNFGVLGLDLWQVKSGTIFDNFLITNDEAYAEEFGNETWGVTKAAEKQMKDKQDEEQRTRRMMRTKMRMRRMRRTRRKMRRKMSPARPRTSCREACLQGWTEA


Key:
[1] = target: T1, human mutCALR on BaF3 cells stably …; experiment: flow cytometry, BaF3 MPL-mutCALR cells
Protocol: On the day of the assay, cells were washed and resuspended in assay buffer. Approximately 200,000 cells/well were added to 96-well plates and stained with the indicated concentration of antibodies for 30 minutes on ice. Cells were then washed and stained with goat anti-human secondary conjugated to R-phycoerythrin (R-PE) (Jackson Immuno Research Laboratories) for 30 minutes on ice. The cells were then washed and analyzed by flow cytometry.

[2] = target: T2, Recombinant MBP-mutCALR Type 1 fusion protein (human); experiment: SPR, IgG captured, 1:1 fit, Exp. 2
T2 construct: custom made at Cepter; also called recombinant mutCALR protein
Method in brief: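 Antibodies captured via amine-coupled anti-human IgG (Fc) on a CM4 chip; recombinant MBP-mutCALR Type 1 fusion protein as analyte. Run at 25 °C in Tris-buffered saline pH 7.2, 0.005% P20, 1 mM CaCl₂. Multiple-cycle kinetics fitted to a 1:1 binding model.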

| Binder | MPL-mutCALR AUC [1] | Kd [2] | koff [2] | kon [2] | EC50 [1] |
| --- | --- | --- | --- | --- | --- |
| anti-mutCALR antibody clone 75 (antibody, human IgG1, lambda, N297A, V domains shown) VH: EVQLVQSGAEVKKPGASVKVSCKVSGYTLTELSMQWVRQAPGKGLEWMGGFDPDDGETMYAEKFQGRLTVTEDTSTDTVYMELRSLTSEDTALYFCATSPGYDFFDYWGQGTLVTVSS VL: SYVLTQPPSVSVAPGKTARITCGGNNIGSKSVHWYQQKPGQAPVLVVYDDSDRPSGIPERFSGSNSGNTATLTISRVEAGDEADYYCQVWDSSNDLLIFGGGTKLTVLG | 84900 | – | – | – | – |
| anti-mutCALR antibody clone 175 (antibody, human IgG1, lambda, N297A, V domains shown, human IgG1 N297A variant of clone 17) VH: EVQLVQSGAEVKKPGASVKVSCKVSGYTLTELSMQWVRQAPGKGLEWMGGFDPDDGETMYAEKFQGRLTVTEDTSTDTVYMELSSLRSEDTAVYFCATSPGYDFFDYWGQGTLVTVSS VL: SYVLTQPPSVSVAPGQTARITCGGSDIGDEIVHWYQQKPGQAPVLVVYDDSDRPSGIPERFSGSNSGNTATLTISRAQAGDEADYYCQVWDSSSDHLIFGGGTKLTVLG | – | 1.39 nM | 0.00631 s⁻¹ | 4.53e+06 M⁻¹ s⁻¹ | – |
| anti-mutCALR antibody clone 176 (antibody, human IgG1, lambda, N297A, V domains shown) VH: EVQLVQSGAEVKKPGASVKVSCKVSGYTLTELSMQWVRQAPGKGLEWMGGFDPDAGETMYAEKFQGRLTVTEDTSTDTVYMELSSLRSEDTAVYFCATSPGYDFFDYWGQGTLVTVSS VL: SYVLTQPPSVSVAPGQTARITCGGSDIGDEIVHWYQQKPGQAPVLVVYDDSDRPSGIPERFSGSNSGNTATLTISRAQAGDEADYYCQVWDSSSDHLIFGGGTKLTVLG | – | 2.8 nM | 0.00278 s⁻¹ | 994000 M⁻¹ s⁻¹ | – |
| anti-mutCALR antibody clone 128 (antibody, human IgG1, lambda, N297A, V domains shown) VH: EVQLVQSGAEVKKPGASVKVSCKVSGYTLTELSMQWVRQAPGKGLEWMGGFDPDDAETMYAEKFQGRLTVTEDTSTDTVYMELRSLTSEDTALYFCATSPGYDFFDYWGQGTLVTVSS VL: SYELTQPPSVSVAPGKTARITCGGDNIGSKSVHWYQQKPGQAPVLVVYDDSDRPSGIPERFSGSNSGNTATLTINRVEAGDEADYYCQVWDSSNDLLIFGGGTKLTVLG | 88900 | – | – | – | – |
| anti-mutCALR antibody clone 124 (antibody, human IgG1, lambda, N297A) heavy: not shown light: SYELTQPPSVSVAPGKTARITCGGDNIGSKSVHWYQQKPGQAPVLVVYDDSDRPSGIPERFSGSNSGNTATLTINRVEAGDEADYYCQVWDSSNDLLIFGGGTKLTVLGQPKAAPSVTLFPPSSEELQANKATLVCLISDFYPGAVTVAWKADSSPVKAGVETTTPSKQSNNKYAASSYLSLTPEQWKSHRSYSCQVTHEGSTVEKTVAPTECS | 93700 | – | – | – | – |
| anti-mutCALR antibody clone 81 (antibody, human IgG1, lambda, N297A, V domains shown) VH: EVQLVQSGAEVKKPGASVKVSCKVSGYTLTELSMQWVRQAPGKGLEWMGGFDPDAGETMYAEKFQGRLTVTEDTSTDTVYMELSSLRSEDTAVYFCATSPGYDFFDYWGQGTLVTVSS VL: SYVLTQPPSVSVAPGKTARITCGGNNIGSKSVHWYQQKPGQAPVLVVYDDSDRPSGIPERFSGSNSGNTATLTISRVEAGDEADYYCQVWDSSNDLLIFGGGTKLTVLG | 52900 | – | – | – | 8.2 ng/mL |
| anti-mutCALR antibody clone 130 (antibody, human IgG1, lambda, N297A, V domains shown) VH: EVQLVQSGAEVKKPGASVKVSCKVSGYTLTELSMQWVRQAPGKGLEWMGGFDPDAGETMYAEKFQGRLTVTEDTSTDTVYMELSSLRSEDTAVYFCATSPGYDFFDYWGQGTLVTVSS VL: SYELTQPPSVSVAPGKTARITCGGDNIGSKSVHWYQQKPGQAPVLVVYDDSDRPSGIPERFSGSNSGNTATLTINRVEAGDEADYYCQVWDSSNDLLIFGGGTKLTVLG | 58300 | – | – | – | 1.7 ng/mL |
| anti-mutCALR antibody clone 131 (antibody, human IgG1, lambda, N297A, V domains shown) VH: EVQLVQSGAEVKKPGASVKVSCKVSGYTLTELSMQWVRQAPGKGLEWMGGFDPDSGETMYAEKFQGRLTVTEDTSTDTVYMELSSLRSEDTAVYFCATSPGYDFFDYWGQGTLVTVSS VL: SYELTQPPSVSVAPGKTARITCGGDNIGSKSVHWYQQKPGQAPVLVVYDDSDRPSGIPERFSGSNSGNTATLTINRVEAGDEADYYCQVWDSSNDLLIFGGGTKLTVLG | 58300 | – | – | – | 1.1 ng/mL |
| anti-mutCALR antibody clone 77 (antibody, human IgG1, lambda, N297A, V domains shown) VH: EVQLVQSGAEVKKPGASVKVSCKVSGYTLTELSMQWVRQAPGKGLEWMGGFDPDSGETMYAEKFQGRLTVTEDTSTDTVYMELRSLTSEDTALYFCATSPGYDFFDYWGQGTLVTVSS VL: SYVLTQPPSVSVAPGKTARITCGGNNIGSKSVHWYQQKPGQAPVLVVYDDSDRPSGIPERFSGSNSGNTATLTISRVEAGDEADYYCQVWDSSNDLLIFGGGTKLTVLG | 54200 | – | – | – | 6.7 ng/mL |
| anti-mutCALR antibody clone 79 (antibody, human IgG1, lambda, N297A, V domains shown) VH: EVQLVQSGAEVKKPGASVKVSCKVSGYTLTELSMQWVRQAPGKGLEWMGGFDPDDAETMYAEKFQGRLTVTEDTSTDTVYMELRSLTSEDTALYFCATSPGYDFFDYWGQGTLVTVSS VL: SYVLTQPPSVSVAPGKTARITCGGNNIGSKSVHWYQQKPGQAPVLVVYDDSDRPSGIPERFSGSNSGNTATLTISRVEAGDEADYYCQVWDSSNDLLIFGGGTKLTVLG | 71900 | – | – | – | 3.3 ng/mL |
| anti-mutCALR antibody clone 132 (antibody, human IgG1, lambda, N297A, V domains shown) VH: EVQLVQSGAEVKKPGASVKVSCKVSGYTLTELSMQWVRQAPGKGLEWMGGFDPDEGETMYAEKFQGRLTVTEDTSTDTVYMELSSLRSEDTAVYFCATSPGYDFFDYWGQGTLVTVSS VL: SYELTQPPSVSVAPGKTARITCGGDNIGSKSVHWYQQKPGQAPVLVVYDDSDRPSGIPERFSGSNSGNTATLTINRVEAGDEADYYCQVWDSSNDLLIFGGGTKLTVLG | 73400 | – | – | – | 0.4 ng/mL |
| anti-mutCALR antibody clone 83 (antibody, human IgG1, lambda, N297A, V domains shown) VH: EVQLVQSGAEVKKPGASVKVSCKVSGYTLTELSMQWVRQAPGKGLEWMGGFDPDEGETMYAEKFQGRLTVTEDTSTDTVYMELSSLRSEDTAVYFCATSPGYDFFDYWGQGTLVTVSS VL: SYVLTQPPSVSVAPGKTARITCGGNNIGSKSVHWYQQKPGQAPVLVVYDDSDRPSGIPERFSGSNSGNTATLTISRVEAGDEADYYCQVWDSSNDLLIFGGGTKLTVLG | 62800 | – | – | – | 3.4 ng/mL |
| anti-mutCALR antibody clone 127 (antibody, human IgG1, lambda, N297A, V domains shown) VH: EVQLVQSGAEVKKPGASVKVSCKVSGYTLTELSMQWVRQAPGKGLEWMGGFDPDEGETMYAEKFQGRLTVTEDTSTDTVYMELRSLTSEDTALYFCATSPGYDFFDYWGQGTLVTVSS VL: SYELTQPPSVSVAPGKTARITCGGDNIGSKSVHWYQQKPGQAPVLVVYDDSDRPSGIPERFSGSNSGNTATLTINRVEAGDEADYYCQVWDSSNDLLIFGGGTKLTVLG | 73500 | – | – | – | 1.4 ng/mL |
| anti-mutCALR antibody clone 82 (antibody, human IgG1, lambda, N297A, V domains shown) VH: EVQLVQSGAEVKKPGASVKVSCKVSGYTLTELSMQWVRQAPGKGLEWMGGFDPDSGETMYAEKFQGRLTVTEDTSTDTVYMELSSLRSEDTAVYFCATSPGYDFFDYWGQGTLVTVSS VL: SYVLTQPPSVSVAPGKTARITCGGNNIGSKSVHWYQQKPGQAPVLVVYDDSDRPSGIPERFSGSNSGNTATLTISRVEAGDEADYYCQVWDSSNDLLIFGGGTKLTVLG | 50200 | – | – | – | 4.8 ng/mL |
| anti-mutCALR antibody clone 76 (antibody, human IgG1, lambda, N297A, V domains shown) VH: EVQLVQSGAEVKKPGASVKVSCKVSGYTLTELSMQWVRQAPGKGLEWMGGFDPDAGETMYAEKFQGRLTVTEDTSTDTVYMELRSLTSEDTALYFCATSPGYDFFDYWGQGTLVTVSS VL: SYVLTQPPSVSVAPGKTARITCGGNNIGSKSVHWYQQKPGQAPVLVVYDDSDRPSGIPERFSGSNSGNTATLTISRVEAGDEADYYCQVWDSSNDLLIFGGGTKLTVLG | 55100 | – | – | – | 8.2 ng/mL |
| anti-mutCALR antibody clone 125 (antibody, human IgG1, lambda, N297A, V domains shown) VH: EVQLVQSGAEVKKPGASVKVSCKVSGYTLTELSMQWVRQAPGKGLEWMGGFDPDAGETMYAEKFQGRLTVTEDTSTDTVYMELRSLTSEDTALYFCATSPGYDFFDYWGQGTLVTVSS VL: SYELTQPPSVSVAPGKTARITCGGDNIGSKSVHWYQQKPGQAPVLVVYDDSDRPSGIPERFSGSNSGNTATLTINRVEAGDEADYYCQVWDSSNDLLIFGGGTKLTVLG | 62700 | – | – | – | 2.1 ng/mL |
| anti-mutCALR antibody clone 84 (antibody, human IgG1, lambda, N297A, V domains shown) VH: EVQLVQSGAEVKKPGASVKVSCKVSGYTLTELSMQWVRQAPGKGLEWMGGFDPDDAETMYAEKFQGRLTVTEDTSTDTVYMELSSLRSEDTAVYFCATSPGYDFFDYWGQGTLVTVSS VL: SYVLTQPPSVSVAPGKTARITCGGNNIGSKSVHWYQQKPGQAPVLVVYDDSDRPSGIPERFSGSNSGNTATLTISRVEAGDEADYYCQVWDSSNDLLIFGGGTKLTVLG | 82400 | – | – | – | 2.9 ng/mL |
| anti-mutCALR antibody clone 78 (antibody, human IgG1, lambda, N297A, V domains shown) VH: EVQLVQSGAEVKKPGASVKVSCKVSGYTLTELSMQWVRQAPGKGLEWMGGFDPDEGETMYAEKFQGRLTVTEDTSTDTVYMELRSLTSEDTALYFCATSPGYDFFDYWGQGTLVTVSS VL: SYVLTQPPSVSVAPGKTARITCGGNNIGSKSVHWYQQKPGQAPVLVVYDDSDRPSGIPERFSGSNSGNTATLTISRVEAGDEADYYCQVWDSSNDLLIFGGGTKLTVLG | 64300 | – | – | – | 5.5 ng/mL |
